Measurements: the array DNA melting data of Ke et al.

Assay: melting temperature; melt of duplexes
Settings: sodium 0.0675 M; strand 1 µM

CGACGTGCCACATGTGCTG+CAGCACATCCCGCACGTCG ((((((((...((((((((+))))))))...))))))))
Tm: 46.3 °C

CGACGTGCTGCATGTGCTG+CAGCACATCGAGCACGTCG (((((((((..((((((((+))))))))..)))))))))
Tm: 52.5 °C

CGACGTGCATGATGTGCTG+CAGCACATGCGGCACGTCG ((((((((...((((((((+))))))))...))))))))
Tm: 48 °C

CGACGTGCAAAATGTGCTG+CAGCACATCGCGCACGTCG ((((((((...((((((((+))))))))...))))))))
Tm: 48.9 °C

CGACGTGCGCAATGTGCTG+CAGCACATTCTGCACGTCG ((((((((..(((((((((+)))))))))..))))))))
Tm: 52.3 °C

CGACGTGCTTCATGTGCTG+CAGCACATGGCGCACGTCG ((((((((..(((((((((+)))))))))..))))))))
Tm: 53 °C

CGACGTGCGGTATGTGCTG+CAGCACATTCCGCACGTCG ((((((((((.((((((((+)))))))).))))))))))
Tm: 60 °C

CGACGTGCCAAATGTGCTG+CAGCACATAACGCACGTCG ((((((((...((((((((+))))))))...))))))))
Tm: 47.7 °C

CGACGTGCCATATGTGCTG+CAGCACATGGGGCACGTCG (((((((((..((((((((+))))))))..)))))))))
Tm: 56.7 °C

CGACGTGCCTCATGTGCTG+CAGCACATTCAGCACGTCG ((((((((...((((((((+))))))))...))))))))
Tm: 47.9 °C

CGACGTGCGTCATGTGCTG+CAGCACATCGAGCACGTCG ((((((((...((((((((+))))))))...))))))))
Tm: 52.3 °C

CGACGTGCGGGATGTGCTG+CAGCACATCTAGCACGTCG ((((((((..(((((((((+)))))))))..))))))))
Tm: 57.8 °C

CGACGTGCGGGATGTGCTG+CAGCACATAGTGCACGTCG ((((((((...((((((((+))))))))...))))))))
Tm: 47.9 °C

CGACGTGCCCAATGTGCTG+CAGCACATACTGCACGTCG ((((((((...((((((((+))))))))...))))))))
Tm: 47.5 °C

CGACGTGCATTATGTGCTG+CAGCACATTCCGCACGTCG ((((((((...((((((((+))))))))...))))))))
Tm: 47.5 °C

CGACGTGCGCCATGTGCTG+CAGCACATGGTGCACGTCG ((((((((.((((((((((+)))))))))).))))))))
Tm: 62.5 °C

CGACGTGCCTAATGTGCTG+CAGCACATCAGGCACGTCG ((((((((((.((((((((+)))))))).))))))))))
Tm: 56.3 °C

CGACGTGCTAGATGTGCTG+CAGCACATATAGCACGTCG ((((((((((.((((((((+)))))))).))))))))))
Tm: 57.6 °C

CGACGTGCCTGATGTGCTG+CAGCACATTTCGCACGTCG ((((((((...((((((((+))))))))...))))))))
Tm: 48.2 °C

CGACGTGCATTATGTGCTG+CAGCACATCTCGCACGTCG ((((((((...((((((((+))))))))...))))))))
Tm: 47.1 °C

CGACGTGCATGATGTGCTG+CAGCACATTAGGCACGTCG ((((((((.(.((((((((+)))))))).).))))))))
Tm: 54 °C

CGACGTGCGTTATGTGCTG+CAGCACATAATGCACGTCG ((((((((.((((((((((+)))))))))).))))))))
Tm: 57.4 °C

CGACGTGCCTCATGTGCTG+CAGCACATGCAGCACGTCG ((((((((..(((((((((+)))))))))..))))))))
Tm: 52.8 °C

CGACGTGCCAAATGTGCTG+CAGCACATTAGGCACGTCG (((((((((.(((((((((+))))))))).)))))))))
Tm: 57.8 °C

CGACGTGCTCGATGTGCTG+CAGCACATCTTGCACGTCG ((((((((..(((((((((+)))))))))..))))))))
Tm: 53.3 °C

CGACGTGCGTTATGTGCTG+CAGCACATCGGGCACGTCG ((((((((...((((((((+))))))))...))))))))
Tm: 48.6 °C

CGACGTGCGCCATGTGCTG+CAGCACATGTAGCACGTCG ((((((((..(((((((((+)))))))))..))))))))
Tm: 55.1 °C

CGACGTGCGACATGTGCTG+CAGCACATAACGCACGTCG (((((((((..((((((((+))))))))..)))))))))
Tm: 54.2 °C

CGACGTGCATGATGTGCTG+CAGCACATCGAGCACGTCG ((((((((..(((((((((+)))))))))..))))))))
Tm: 56.1 °C

CGACGTGCTCAATGTGCTG+CAGCACATGGCGCACGTCG ((((((((.(.((((((((+)))))))).).))))))))
Tm: 51.8 °C

CGACGTGCGCAATGTGCTG+CAGCACATACGGCACGTCG ((((((((...((((((((+))))))))...))))))))
Tm: 48.6 °C

CGACGTGCCTAATGTGCTG+CAGCACATTGAGCACGTCG ((((((((..(((((((((+)))))))))..))))))))
Tm: 52.7 °C

CGACGTGCAGGATGTGCTG+CAGCACATGCCGCACGTCG ((((((((.(.((((((((+)))))))).).))))))))
Tm: 54 °C

CGACGTGCAGGATGTGCTG+CAGCACATGAAGCACGTCG ((((((((...((((((((+))))))))...))))))))
Tm: 50.3 °C

CGACGTGCTTAATGTGCTG+CAGCACATCCGGCACGTCG ((((((((...((((((((+))))))))...))))))))
Tm: 49 °C

CGACGTGCTTCATGTGCTG+CAGCACATGTGGCACGTCG ((((((((..(((((((((+)))))))))..))))))))
Tm: 54.8 °C

CGACGTGCTTAATGTGCTG+CAGCACATTATGCACGTCG ((((((((.((((((((((+)))))))))).))))))))
Tm: 56.5 °C

CGACGTGCCTCATGTGCTG+CAGCACATTCGGCACGTCG (((((((((..((((((((+))))))))..)))))))))
Tm: 53 °C

CGACGTGCCGTATGTGCTG+CAGCACATTCGGCACGTCG ((((((((((.((((((((+)))))))).))))))))))
Tm: 59.9 °C

CGACGTGCGCTATGTGCTG+CAGCACATCCTGCACGTCG ((((((((...((((((((+))))))))...))))))))
Tm: 48.1 °C

CGACGTGCCTAATGTGCTG+CAGCACATTTCGCACGTCG ((((((((..(((((((((+)))))))))..))))))))
Tm: 50.5 °C

CGACGTGCCCCATGTGCTG+CAGCACATATTGCACGTCG ((((((((...((((((((+))))))))...))))))))
Tm: 46.1 °C

CGACGTGCCACATGTGCTG+CAGCACATTGGGCACGTCG (((((((((..((((((((+))))))))..)))))))))
Tm: 55 °C

CGACGTGCAGAATGTGCTG+CAGCACATACTGCACGTCG ((((((((((.((((((((+)))))))).))))))))))
Tm: 57.8 °C

CGACGTGCTCGATGTGCTG+CAGCACATCTGGCACGTCG ((((((((..(((((((((+)))))))))..))))))))
Tm: 54.3 °C

CGACGTGCGTCATGTGCTG+CAGCACATATTGCACGTCG ((((((((...((((((((+))))))))...))))))))
Tm: 49.2 °C

CGACGTGCGGCATGTGCTG+CAGCACATAGAGCACGTCG ((((((((...((((((((+))))))))...))))))))
Tm: 56.4 °C

CGACGTGCCAGATGTGCTG+CAGCACATAATGCACGTCG ((((((((...((((((((+))))))))...))))))))
Tm: 48.5 °C

CGACGTGCCAGATGTGCTG+CAGCACATGCAGCACGTCG ((((((((...((((((((+))))))))...))))))))
Tm: 51.2 °C

CGACGTGCTGTATGTGCTG+CAGCACATATTGCACGTCG ((((((((..(((((((((+)))))))))..))))))))
Tm: 52.7 °C

CGACGTGCCTGATGTGCTG+CAGCACATTACGCACGTCG ((((((((.(.((((((((+)))))))).).))))))))
Tm: 49 °C

CGACGTGCGAGATGTGCTG+CAGCACATCTGGCACGTCG ((((((((.((((((((((+)))))))))).))))))))
Tm: 59 °C
